The values below come from US20140325692, “BLUE-LIGHT INDUCIBLE SYSTEM FOR GENE EXPRESSION” (BOARD OF REGENTS, THE UNIVERSITY OF TEXAS SYSTEM, published 2014).

Common to all, as to conditions: tags: His6-Gβ1 (pHis6-Gβ1-Parallel1); label: 5'-32P
For data set [1], the target named is T1, EL222 (14-222) wild type (Erythrobacter litoralis, UniProt Q2NB98 SEQ:1-209).
T1 chain: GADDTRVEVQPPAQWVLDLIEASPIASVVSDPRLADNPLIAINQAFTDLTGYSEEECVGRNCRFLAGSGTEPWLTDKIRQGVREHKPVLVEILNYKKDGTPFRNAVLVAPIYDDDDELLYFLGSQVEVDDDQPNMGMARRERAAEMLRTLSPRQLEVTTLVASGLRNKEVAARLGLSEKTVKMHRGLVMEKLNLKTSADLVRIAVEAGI
In words: EMSA; light, 4 C, 3 mM MgCl2. As to the method:
(§1) DNA pools derived from each SELEX cycle were PCR amplified as described previously in the SELEX procedure. Complementary oligonucleotides for each individual SELEX-derived clone sequence were chemically synthesized (Sigma), heated to 95-100° C. for 5 min and left to cool to room temperature to anneal the oligonucleotides. DNAs were 5′-end labeled in a 50 μl reaction containing (final concentrations) 68 nM DNA substrate, 70 mM Tris-Cl pH 7.6, 10 mM MgCl₂, 5 mM DTT, 0.6 μCi ATP [γ-³²P] (Perkin Elmer, cat. no. BLU502Z500UC), and 0.2 U PNK (New England Biolabs Inc.). The reaction was incubated for 30 min at 37° C., followed by a 20 min incubation at 65° C. to heat inactivate the enzyme. The ³²P-labeled DNA was purified from the unincorporated ATP [γ-³²P] using Illustra ProbeQuant G-50 micro-columns (GE Healthcare). Approximately 13.6 nM radiolabeled DNA was incubated with varying concentrations of WT-EL222 in the same binding buffer used for SELEX procedure for 25 min at 4° C. with continuous illumination with a white LED light. Reactions were analyzed on a 5% native gel (Acrylamide/Bis 29:1) and run in TBE buffer at 150 V for 1.5 hr at 4° C. The gel was exposed to a PhosphorImaging plate and visualized using FujiFilm FLA-5100 imaging system.
In general terms: A gel shift assay detects complexes by their altered migration in electrophoresis.

Data set [2] concerns the target T1, EL222 (14-222) wild type. In words: EMSA; light, 4 C, 3 mM MgCl2; 33 bp randomized region printed. Here is the method: as §1
Data set [3] concerns the target T1, EL222 (14-222) wild type. Nature of the data set: EMSA; white LED light, 4 C, 10 mM Tris pH 8.0, 80 mM NaCl, 3 mM MgCl2. Here is the method: as §1

B1: C1-2 (dsDNA)
DNA 1: TAGGTAGCCTTTAGTCCATG
DNA 2: CATGGACTAAAGGCTACCTA
With B1, in data set [1], the binding result is “binds”.

B2: Clone-2 (dsDNA)
DNA 1: AGCTAGGCTTTTGGTCTGTATAGCTGTCTTATA
DNA 2: TATAAGACAGCTATACAGACCAAAAGCCTAGCT
For the molecule B2, in data set [2], the binding result was “binds”.

B3: Clone-78 (dsDNA)
DNA 1: GCCCTAAGACTGTATCTTATTCGTGAGTTTTAA
DNA 2: TTAAAACTCACGAATAAGATACAGTCTTAGGGC
For the molecule B3, the binding result in data set [2] is reported as “binds”.

B4: Clone-1 (dsDNA)
DNA 1: TCTACGTTATAGGTAGCCTTTAGTCCATGCTGATTCGTTTTCAAC
DNA 2: GTTGAAAACGAATCAGCATGGACTAAAGGCTACCTATAACGTAGA
Consider B4, for which the binding result in data set [3] is listed as “binds”.

B5: Clone-53 (dsDNA)
DNA 1: CATGGCCTAAGGACTGTAAGTACTATTAAATAC
DNA 2: GTATTTAATAGTACTTACAGTCCTTAGGCCATG
With B5, in data set [2], the binding result is given as “binds”.

B6: Clone-77 (dsDNA)
DNA 1: CAGATACATGCTTTAGTACGTATATTCGATGTC
DNA 2: GACATCGAATATACGTACTAAAGCATGTATCTG
Turning to B6, the binding result in data set [2] is listed as “binds”.

B7: Clone-3 (dsDNA)
DNA 1: TAGACTTAAGTCTAGTACACAAGTTTTCCAGGG
DNA 2: CCCTGGAAAACTTGTGTACTAGACTTAAGTCTA
As for B7, the binding result in data set [2] is “binds”.

B8: Clone-22 (dsDNA)
DNA 1: TATAGGGCTTTAGTCTGTATGTGGGATGTGTGT
DNA 2: ACACACATCCCACATACAGACTAAAGCCCTATA
Turning to B8, in data set [2], the binding result is “binds”.
